Measurements: patent publication US20220273711A1 (published 2022)
Positions count from the first letter of the chain named. Names and notes keep the numbering of the source. Each block holds one binder with its values, some of them ahead of it.

Target: biotinylated Bcl2 (wild-type non-optimized Bcl2 with C-terminal Avi and 6xHis-tags) (UniProt P10415 1-207, enzymatically biotinylated using BirA (Avi tag))
Experiment: BLI; midpoint; Cage plus Key_EGFR, co-localization-independent

biotinylated Bcl2 (wild-type non-optimized Bcl2 with C-terminal Avi and 6xHis-tags), sequence (P10415 1-207): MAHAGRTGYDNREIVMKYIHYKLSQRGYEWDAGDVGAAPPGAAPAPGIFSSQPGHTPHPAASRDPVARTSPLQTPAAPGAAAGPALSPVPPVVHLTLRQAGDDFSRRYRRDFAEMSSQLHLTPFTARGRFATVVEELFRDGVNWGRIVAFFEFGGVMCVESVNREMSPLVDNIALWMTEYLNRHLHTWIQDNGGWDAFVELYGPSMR

- EC50: 23 nM
B1: Her2_Cage_L209A (Tuned Cage targeted to Her2 by DARPin (L209A)) (designed binder)
chain: MGSHHHHHHGSGSENLYFQGSGGSDLGKKLLEAARAGQDDEVRILMANGADVNAKDEYGLTPLYLATAHGHLEIVEVLLKNGADVNAVDAIGFTPLHLAAFIGHLEIAEVLLKHGADVNAQDKFGKTAFDISIGNGNEDLAEILQKLNSGSGSGKPGQASGSELARKLLEASTKLQRLNIRLAEALLEAIARLQELNLELVYLAVELTDPKRIRDEIKEVKDKSKEIIRRAEKEIDDAAKESEKILEEAREAISGSGSELAKLLLKAIAETQDLNLRAAKAFLEAAAKLQELNIRAVELLVKLTDPATIREALEHAKRRSKEIIDEAERAIRAAKRESERIIEEARRLIEKGSGSGSELARELLRAHAQAQRLNLELLRELLRALAQLQELNLDLLRLASELTDEIWIAQELRRIGDEFNAYYADAERLIREAAAASEKISREAERLIR

- EC50: 63 nM
B2: Her2_Cage (Original Cage targeted to Her2 by DARPin) (designed binder)
chain: B1 chain with A370L

- EC50: 8.4 nM
B3: Her2_Cage_I269S (Tuned Cage targeted to Her2 by DARPin (I269S)) (designed binder)
chain: B1 chain with A370L, I430S

- EC50: 12 nM
B4: Her2_Cage_I287A (Tuned Cage targeted to Her2 by DARPin (I287A)) (designed binder)
chain: B1 chain with A370L, I448A

- EC50: 8.7 nM
B5: Her2_Cage_I287S (Tuned Cage targeted to Her2 by DARPin (I287S)) (designed binder)
chain: B1 chain with A370L, I448S
